The record followed here is patent EP4806922A2 (Lyvgen Biopharma Holdings Limited, dated 2026).

Read-outs that look alike come from different tables or passages of the source.

The target of one experiment is T1, human CD137 protein (human, UniProt Q07011 24-186).
T1 construct: also called human CD137 expressing CHO cells
In words: ELISA or FCM, graded summary. (In an ELISA, binding on a coated surface is turned into a signal by an enzyme label.)

Experiment [1] concerns the target T2, human PD-L1 protein (human, UniProt Q9NZQ7 19-238). Description: FCM or ELISA, graded summary.
Experiment [2] has as its target T3, human CD3D/E protein (human, UniProt P04234 22-105; P07766 23-126).
T3 construct: also called human CD3 expressing Jurkat cells
Description: FCM or ELISA, graded summary.

In experiment [3] the target is T2, human PD-L1 protein. Description: FCM or ELISA, graded summary. This is another data set of the same source.
In a further experiment the target is T4, human BCMA protein (human, UniProt Q02223 1-54).
T4 construct: also called human BCMA expressing NCI-H929 cells; human BCMA overexpressing HEK293 cells
T4 sequence (looked up): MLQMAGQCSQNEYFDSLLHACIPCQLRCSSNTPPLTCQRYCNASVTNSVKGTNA
In words: FCM or ELISA, graded summary.

Experiment [4] concerns the target T3, human CD3D/E protein. In words: ELISA or FCM, graded summary.

T2 sequence (Q9NZQ7 19-238 limits assumed): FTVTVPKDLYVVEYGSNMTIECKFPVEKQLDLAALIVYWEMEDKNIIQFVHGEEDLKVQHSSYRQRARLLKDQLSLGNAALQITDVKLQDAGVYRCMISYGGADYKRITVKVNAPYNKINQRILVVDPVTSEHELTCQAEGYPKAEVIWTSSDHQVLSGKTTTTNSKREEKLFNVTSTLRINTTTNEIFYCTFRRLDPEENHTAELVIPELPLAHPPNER
T3 sequence (P04234 22-105, chain 1 of 2): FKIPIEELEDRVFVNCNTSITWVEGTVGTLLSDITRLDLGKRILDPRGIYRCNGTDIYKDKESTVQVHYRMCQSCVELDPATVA
T3 sequence (P07766 23-126, chain 2 of 2): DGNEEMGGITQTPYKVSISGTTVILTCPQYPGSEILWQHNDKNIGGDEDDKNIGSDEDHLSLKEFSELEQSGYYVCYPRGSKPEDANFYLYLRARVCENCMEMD
T1 sequence (Q07011 24-186 limits assumed): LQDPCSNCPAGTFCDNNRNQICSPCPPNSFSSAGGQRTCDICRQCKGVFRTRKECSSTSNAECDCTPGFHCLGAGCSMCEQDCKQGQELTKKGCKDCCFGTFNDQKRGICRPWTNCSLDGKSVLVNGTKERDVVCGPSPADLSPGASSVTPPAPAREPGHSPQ

B1: Ly1630 (anti-CD137 parent) (antibody, V domains shown)
VH: QVQLVQSGAEVKKPGASVKVSCKASGYTFAGFEMHWVRQAPGQGLEWMGAIDPKTGGTDYNQKFKDRVTMTRDTSISTAYMELSRLRSDDTAVYYCARDLGYFDVWGQGTLVTVSS
VL: DIQMTQSPSSLSASVGDRVTITCRASQDIRSNLNWYQQKPGGAVKLLIYYTSRLHSGVPSRFSGSGSGTDYTLTISSLQPEDFATYFCQQSEKLPRTFGGGTKVEIR
notes: Parent monoclonal antibody used as control; also called anti-CD137 mAb Ly1630
On to B1, for which the binding result with human CD137 protein is “binds”.

B2: Ly076 (anti-PD-L1 parent) (antibody, V domains shown)
VH: QVQLVQSGAEVKKPGASVKVSCKASGYTFTDFWMSWVRQAPGQGLEWMGQIYPNTGTTHSNEKFKGRVTMTRDTSTSTVYMELSSLRSEDTAVYYCARSYHISTTPNWFAYWGQGTLVTVSS
VL: DIQMTQSPSSLSASVGDRVTITCKASQNVYKKLEWYQQKPGKVPKVLIYHTNILQTGVPSRFSGSGSGTDYTLTISSLQPEDVATYYCYQWNSGPTFGGGTKVEIK
notes: Parent monoclonal antibody used as control; also called anti-PD-L1 mAb Ly076
For B2, the binding result with human PD-L1 protein [1] is given as “binds”.

B3: Ly2959 (BCMA/CD3/PD-L1) (other)
heavy 1: QVQLVQSGAEVKKPGASVKVSCKASGYTFTNHIIHWVRQAPGQGLEWMGYINPYPGYHAYNEKFQGRATMTSDTSTSTVYMELSSLRSEDTAVYYCARDGYYRDTDVLDYWGQGTLVTVSSASTKGPSVFPLAPSSKSTSGGTAALGCLVKDYFPEPVTVSWNSGALTSGVHTFPAVLQSSGLYSLSSVVTVPSSSLGTQTYICNVNHKPSNTKVDKKVEPKSCGGGGSGGGGSGGGGSGGGGSEVQLVESGGGLVQPGGSLRLSCAASGFTFSTYAMNWVRQAPGKGLEWVGRIRSKYNNYATYYADSVKGRFTISRDDSKNSLYLQMNSLKTEDTAVYYCVRHGNFGNSYVSWFAYWGQGTLVTVSSGGGGSDKTHTCPPCPAPELLGPSVFLFPPKPKDTLMISRTPEVTCVVVDVSHEDPEVKFNWYVDGVEVHNAKTKPREEQYNSTYRVVSVLTVLHQDWLNGKEYKCKVSNKALGAPIEKTISKAKGQPREPQVYTLPPSREEMTKNQVSLWCLVKGFYPSDIAVEWESNGQPENNYKTTPPVLDSDGSFFLYSKLTVDKSRWQQGNVFSCSVMHEALHNHYTQKSLSLSPGKGGGGSGGGGSGGGGSGGGGSQVQLVQSGAEVKKPGASVKVSCKASGYTFTDFWMSWVRQAPGQGLEWMGQIYPNTGTTHSNEKFKGRVTMTRDTSTSTVYMELSSLRSEDTAVYYCARSYHISTTPNWFAYWGQGTLVTVSS
heavy 2: QVQLVQSGAEVKKPGASVKVSCKASGYTFTNHIIHWVRQAPGQGLEWMGYINPYPGYHAYNEKFQGRATMTSDTSTSTVYMELSSLRSEDTAVYYCARDGYYRDTDVLDYWGQGTLVTVSSASTKGPSVFPLAPSSKSTSGGTAALGCLVKDYFPEPVTVSWNSGALTSGVHTFPAVLQSSGLYSLSSVVTVPSSSLGTQTYICNVNHKPSNTKVDKKVEPKSCGGGGSGGGGSGGGGSGGGGSQAVVTQEPSLTVSPGGTVTLTCRSSTGAVTTSNYANWVQQKPGQAPRGLIGGTNKRAPWTPARFSGSLLGGKAALTITGAQAEDEADYYCALWYSNLWVFGGGTKLTVLGGGGSDKTHTCPPCPAPELLGPSVFLFPPKPKDTLMISRTPEVTCVVVDVSHEDPEVKFNWYVDGVEVHNAKTKPREEQYNSTYRVVSVLTVLHQDWLNGKEYKCKVSNKALGAPIEKTISKAKGQPREPQVYTLPPSREEMTKNQVSLSCAVKGFYPSDIAVEWESNGQPENNYKTTPPVLDSDGSFFLVSKLTVDKSRWQQGNVFSCSVMHEALHNRFTQKSLSLSPGKGGGGSGGGGSGGGGSGGGGSDIQMTQSPSSLSASVGDRVTITCKASQNVYKKLEWYQQKPGKVPKVLIYHTNILQTGVPSRFSGSGSGTDYTLTISSLQPEDVATYYCYQWNSGPTFGGGTKVEIK
light: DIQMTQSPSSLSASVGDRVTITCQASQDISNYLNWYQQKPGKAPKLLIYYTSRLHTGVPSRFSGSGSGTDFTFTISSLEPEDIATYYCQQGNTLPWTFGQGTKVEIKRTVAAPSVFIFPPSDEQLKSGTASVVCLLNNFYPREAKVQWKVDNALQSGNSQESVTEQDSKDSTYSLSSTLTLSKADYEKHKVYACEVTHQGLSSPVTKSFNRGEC
notes: Multi-specific (tri-specific) antibody with three different chains HC1, HC2, LC1; also called BCMA(a) /CD3 /PD-L1
In the case of B3, the binding result with human CD3D/E protein [2], with human PD-L1 protein [3] and with human BCMA protein was “binds” throughout.

B4: Ly305 (anti-CD3 parent) (antibody, V domains shown)
VH: EVQLVESGGGLVQPGGSLRLSCAASGFTFSTYAMNWVRQAPGKGLEWVGRIRSKYNNYATYYADSVKGRFTISRDDSKNSLYLQMNSLKTEDTAVYYCVRHGNFGNSYVSWFAYWGQGTLVTVSS
VL: QAVVTQEPSLTVSPGGTVTLTCRSSTGAVTTSNYANWVQQKPGQAPRGLIGGTNKRAPWTPARFSGSLLGGKAALTITGAQAEDEADYYCALWYSNLWVFGGGTKLTVL
notes: Parent monoclonal antibody used as control; also called anti-CD3 mAb Ly305; parental anti-CD3 mAb
Regarding B4, in the experiment with human CD3D/E protein [4], the binding result is listed as “binds”.
